Assay results: paper PMC8876998
“And” between values parts separate entries of the source, which are not always exact repeats. Equal values may be shown once.

Experiments:
[1] = molecular target: Getah virus capsid protein (Getah virus (GETV), strain SC483); test: cryo-EM structure
[2] = molecular target: Getah virus envelope glycoprotein E2 (Getah virus (GETV), strain SC483); test: cryo-EM structure

## Getah virus capsid protein (natural protein)
[1]
  stoichiometry N: 6 and 5

## Getah virus envelope glycoprotein E2 (natural protein)
[2]
  stoichiometry N: 3
